Data set [1] is described as follows: Temperature stability of MicD-F. In kind it is physicochemical.
In a further data set the test system is MicD-F. As to the kind of experiment: Reaction of protein substrates (mCherry and Rop variants) with MicD-F, LC-MS deconvoluted mass. The note with it: for cyclodehydration of mCherry variants to thiazoline (loss of water) / cyclodehydration of Rop variants to thiazoline: 50 mol % MicD-F; for cyclodehydration of mCherry variants to thiazoline (loss of water): 24 hours. In kind it is biochemical, Microcystis aeruginosa. Here is the method: Reactions of proteins with MicD-F were performed in the manner described above with minor modifications. Namely, the substrate stock was a 1 mM solution of protein in 20 mM HEPES, 150 mM NaCl, 1 mM TCEP, pH 7.4.
(§1) Unprocessed reaction mixture (1 μL) was used for LC-MS analysis which was performed on an Agilent 1290 Infinity II HPLC connected to an Agilent 6530B QTOF AJS-ESI. The mobile phase for LC-MS was water and acetonitrile with 0.1% (v/v) formic acid and a flow rate of 0.4 mL/min. Each sample was injected onto a Poroshell 300SB-C8 column (2.1×75 mm, 5-Micron, room temperature, Agilent) using a linear gradient from 5 to 55% acetonitrile over 8 minutes after an initial hold at 5% acetonitrile for 2 minutes (0.4 mL/min). The following parameters were used during acquisition: Fragmentor voltage 225 V, gas temperature 300° C., gas flow 10 L/min, sheath gas temperature 350° C., sheath gas flow 11 L/min, nebulizer pressure 35 psi, skimmer voltage 65 V, Vcap 5000 V, 1 spectra/s. Intact protein masses were obtained via deconvolution using the Maximum Entropy algorithm in Mass Hunter Bioconfirm (V10, Agilent).

The subject of another data set is MicD-F and ArtGox. Put plainly: Reaction of protein substrates with MicD-F and ArtGox in tandem, LC-MS deconvoluted mass. In kind it is biochemical, Microcystis aeruginosa; Arthrospira platensis. To be noted: 50 mol % MicD-F, 80 mol % ArtGox, 24 hours, pH 9.0, 37° C. As for the experimental part: Reactions of proteins with MicD-F and ArtGox were performed in the manner described above with minor modifications. The substrate stock was a 1 mM solution of protein in 20 mM HEPES, 150 mM NaCl, 1 mM TCEP, pH 7.4. Reactions were carried out at either 25° C. or 37° C. as indicated.
as §1

Data set [2] can be described thus: Circular dichroism of Rop variants (wavelength scans and temperature melts). In kind it is physicochemical. To be noted: CD at 222 nm; for TM (melting temperature): 20 μM, 10 mM phosphate, 100 mM NaCl, 150 μM TCEP, pH 7.0. As for the experimental part: RopN, RopM, and RopC were exchanged into CD buffer (10 mM phosphate, 100 mM NaCl, 150 μM TCEP, pH 7.0) using Amicon Ultra-0.5 mL centrifugal filters (MilliporeSigma, Burlington, MA) with a 3 kDa molecular weight cut-off according to the manufacturer's instructions and then diluted with the same buffer to a concentration of 20 μM. For CD analysis each Rop variant was transferred to a 1 mm quartz cuvette. Wavelength and temperature dependent CD spectra were collected with an AVIV Biomedical, Inc. (Lakewood, NJ) Circular Dichroism Spectrometer Model 410. For wavelength-dependent spectra, initial scans were performed from 200 to 300 nm at 25° C. in 2 nm increments with an averaging time of 5 seconds. For temperature melt experiments, the signal was monitored at 222 nm with an averaging time of 5 seconds. Temperature melts were performed from 5 to 90° C. in 1° C. increments with equilibration for 2 minutes before each measurement. Following the temperature melt the sample was returned to 25° C. and the wavelength-dependent CD spectra was measured once more to assess the reversibility of the melt. Raw data (mdeg) were converted to molar ellipticity ([Θ], in deg*cm^2*dmol^−1) by
where M is the mean residual weight (116.00 g/mol for RopN, RopM, and RopC), L is the pathlength of the cuvette in centimeters, and C is the concentration of the sample in g/L.7 The melting temperature was determined by fitting the molar ellipticity as a function of temperature to a Boltzmann sigmoidal curve using GraphPad Prism (Version 7.04).
CD analysis of RopC-U and RopC-Z was performed as described for RopN, RopM, and RopC with the following modifications. Temperature melts were performed from 5 to 90° C. in 2.5° C. increments. Before measuring the temperature melt for RopC-Z, the protein was refolded by performing an initial melt from 5 to 90° C. in 2.5° C. increments as described.
For orientation: Circular dichroism is the unequal absorption of left and right circularly polarised light.

Data set [3] can be described thus: Analytical size-exclusion chromatography of Rop variants. In kind it is physicochemical. The note with it: 50 μM. Here is the method: To assess the homogeneity of isolated Rop variants, a solution of each protein was prepared (250 μg at 50 μM) in running buffer (10 mM phosphate, 100 mM NaCl, 150 µM TCEP, pH 7.0). A Superdex® 75 Increase 10/300 GL column (stored and operated at 4° C.) was washed with 2 column volumes (CV) of degassed and sterile filtered MilliQ water. The column was then equilibrated in running buffer for 2 CV. Each sample (500 μL) was applied to a 500 μL sample loop. The sample loop was washed with 2 mL of running buffer at 0.8 mL/min to load the sample onto the column. The sample was then eluted from the column by flowing running buffer at 0.8 mL/min for 1.30 CV. To assess column performance, a gel filtration standard (Bio-Rad Laboratories, Hercules, CA, catalog number 151-1901) containing 670 kDa, 158 kDa, 44 kDa, 17 kDa, and 1.35 kDa standards was used according to the manufacturer's instructions.
(In gel filtration, larger molecules generally elute earlier.)

B1: MicD-F: constitutively activated cyclodehydratase, leader peptide fused to N-terminus of MicD, SEQ ID NO: 7 (protein, listed as Microcystis aeruginosa)
chain: MSHHHHHHDYDENLYFQGSRLTAGQLSSQLAELSEEALGDAGAGAGAGAGAKLMQSTPLLQIQPHFHVEVIEPKQVYLLGEQANYALTGQLYCQILPLLDGQHSREQIVEKLDGEVPSEYIDYVLDRLAEKGYLTEAAPELSSEVAAFWSELGIAPPVAAEALRQSVTLTPVGNISEVTVAALTTALRDIGISVQTPTEAGSPTALNVVLTDDYLQPELAKINKQALESQQTWLLVKPVGSVLWLGPVFVPGKTGCWDCLAHRLRGNREVEASVLQQKQAQQQRNGQSGSVIGCLPTARATLPSTLQTGLQFAATEIAKWIVKHHVKATAPGTVFFPTLDGKIITFNHTVIDLKSHVLVRRSQCPSCGDRQILHRQGFEPVKLVSRRKHFTHDGGHRAFTPEQTVQKYQHLVSPITGVVTELVRLTDPANPLVHTYKAGHAFGSATTLRGLRNTLKYKSSGKGKTDIQSRASGLCEAIERYSGIFQGDEPRKRATLAELGDLALHPESLLYFSNTQYANREELNAQGSAAAYRWIPNRFDVSQAIDWTPVWSLTEQKHKYVPTAFCYYGYPLPEEQRFCKADSNGNAAGNTLEEAILQGFLELVERDSIAMWWYNRIRRPAVDLSTFDEPYFVDLQQFYQQQNRELWVLDVTADLGIPAFAGFSRRTVGTSERISIGFGAHLDPTIAILRALTEVSQVGLELDKIPDDKLDGESKDWMLNVTVENHPWLAPDPSVPMKTASDYPKRWSDDIHTDVMNCVKTAQTAGLEVMVLDQTRPDIGLNVVKVIIPGMRTFWTRFGQGRLYDIPVKLGWLDAPLAEEELNQTNIPF
As for B1, in data set [1], the “highest temperature at which MicD-F remained stable” value is 42 °C.

B2: mCherry174+ (protein, listed as Discosoma sp.)
chain: MDYKDDDDKMVSKGEEDNMAIIKEFMRFKVHMEGSVNGHEFEIEGEGEGRPYEGTQTAKLKVTKGGPLPFAWDILSPQFMYGSKAYVKHPADIPDYLKLSFPEGFKWERVMNFEDGGVVTVTQDSSLQDGEFIYKVKLRGTNFPSDGPVMQKKTMGWEASSERMYPEDGALKGEIKQRLKLKDMCAYDGGGHYDAEVKTTYKAKKPVQLPGAYNVNIKLDITSHNEDYTIVEQYERAEGRHSTGGMDELYKHHHHHH
For B2, the “cyclodehydration of mCherry variants to thiazoline (loss of water)” value was “no evidence of cyclodehydration” in the data set with MicD-F (pH 9.0, 37° C.) and “no evidence of cyclodehydration” with MicD-F (pH 9.0, 42° C.).

B3: RopC: Rop variant with loop sequence GGGGMCAYDG, SEQ ID NO: 3 (protein, listed as Escherichia coli)
chain: MDYKDDDDKMTKQEKTALNMARFIRSQTLTLLEKLNELGGGGMCAYDGDEQADICESLHDHADELYRSCLARFGDDGENLHHHHHH
With B3, the “conversion to the thiazole-modified protein” value in the data set on MicD-F and ArtGox is “complete conversion”. Further, in data set [2], the “unfolding behaviour in temperature melt” value is “melted cooperatively and reversibly”; the “TM (melting temperature)” value is 28 °C. Further, the “migration / homogeneity on SEC” value in data set [3] was “discrete dimers”. Moreover, the “cyclodehydration of Rop variants to thiazoline” value (“cyclodehydration of Rop variants” for short) in the data set with MicD-F (pH 9.0, 37° C., 16 h) is “clean conversion”. Also, the “conversion of RopC into RopC-U” value in the data set on MicD-F (up to 50 μM MicD-F, 16 h, 25° C.) is on record as “minimal”.

B4: RopM: Rop variant with loop sequence GGMCAYDGGG, SEQ ID NO: 2 (protein, listed as Escherichia coli)
chain: MDYKDDDDKMTKQEKTALNMARFIRSQTLTLLEKLNELGGMCAYDGGGDEQADICESLHDHADELYRSCLARFGDDGENLHHHHHH
For the molecule B4, in data set [2], the “unfolding behaviour in temperature melt” value is “melted cooperatively and reversibly”; the “TM (melting temperature)” value was found to be 32 °C. The “migration / homogeneity on SEC” value in data set [3] is “discrete dimers”. Moreover, in the data set on MicD-F (pH 9.0, 37° C., 16 h), the “cyclodehydration of Rop variants” value was “reacted partially”.

B5: RopN: Rop variant with loop sequence MCAYDGGGGG, SEQ ID NO: 1 (protein, listed as Escherichia coli)
chain: MDYKDDDDKMTKQEKTALNMARFIRSQTLTLLEKLNELMCAYDGGGGGDEQADICESLHDHADELYRSCLARFGDDGENLHHHHHH
Turning to B5, in data set [2], the “unfolding behaviour in temperature melt” value is “melted non-cooperatively” and the “TM (melting temperature)” value came to 43 °C. The “migration / homogeneity on SEC” value in data set [3] is given as “heterogeneous mixture”. For the same molecule, in the data set on MicD-F (pH 9.0, 37° C., 16 h), the “cyclodehydration of Rop variants” value is recorded as “unreactive”.

B6: mCherry192+ (protein, listed as Discosoma sp.)
chain: MDYKDDDDKMVSKGEEDNMAIIKEFMRFKVHMEGSVNGHEFEIEGEGEGRPYEGTQTAKLKVTKGGPLPFAWDILSPQFMYGSKAYVKHPADIPDYLKLSFPEGFKWERVMNFEDGGVVTVTQDSSLQDGEFIYKVKLRGTNFPSDGPVMQKKTMGWEASSERMYPEDGALKGEIKQRLKLKDGGHYDAEVKTTYKAKKPVMCAYDGQLPGAYNVNIKLDITSHNEDYTIVEQYERAEGRHSTGGMDELYKHHHHHH
Regarding B6, the “cyclodehydration of mCherry variants to thiazoline (loss of water)” value is on record as “no evidence of cyclodehydration” with MicD-F (pH 9.0, 37° C.) and “no evidence of cyclodehydration” in the data set on MicD-F (pH 9.0, 42° C.).

The record behind these values is patent US20250179550A1, “Methods to imbue polymeric materials with new structures and functions” (The Regents of the University of California, priority 2022, published 2025).
